The results in this text go back to paper PMC4161474.

Holding throughout (assay): co-IP; HEK293 cells co-transfected with Flag-HBx wt or alanine substitution mutants and His-myc-Spin1; precipitated with anti-Flag antibodies, anti-Myc and anti-Flag blots quantified with the Odyssey system; signal normalised to HBx in the IP/HBx in the input, Flag-HBx wt set to 100% (Figure 1C)
For test [1], the target named is Flag-HBx Cm13, clustered alanine substitution mutant (Hepatitis B virus) (UniProt P69713).
Test [2] concerns the target Flag-HBx Cm5, clustered alanine substitution mutant (Hepatitis B virus) (UniProt P69713).
The target in test [3] is Flag-HBx Cm7, clustered alanine substitution mutant (Hepatitis B virus) (UniProt P69713).
Test [4] concerns the target Flag-HBx Cm8, clustered alanine substitution mutant (Hepatitis B virus) (UniProt P69713).
Test [5] has as its target Flag-HBx Cm9, clustered alanine substitution mutant (Hepatitis B virus) (UniProt P69713).

Regarding “His-Myc-Spindlin1 (from UniProt Q9Y657 1-262) (natural protein)”, the percent of Spindlin1 immunoprecipitated (Flag-HBx wt = 100%) in test [1] was found to be 29%; in test [2] it was 10%; in test [3], 13%; in test [4], 52%; in test [5], 28%.
